Measured values: a protein production outcome set (Wang et al. 2014)

experiment: label from the status in PepcDB records

| Sequence | protein production |
| --- | --- |
| MSGKTSITSRSDEFQRQIDHKEMPRDHQIERHTHIHTTRYRGGSLVEEVIEKLERFKVRTVNILVGGEDDEQKK | failed |
| MSGLAQRSDDPWLAALPAAVLYGAWAAYANQDGGLAGMGVAALLQGAASLLATRFGLYLLQCLGRRHGLAQRQAPLLVVLLLTAPMAALHWLSGTPHPLASVAPSFVIGWLYFALWARRRPGRRQASGA | failed |
| MSGLVTGREIVQTARDENVPFMGASIAYYAIASIVPLLALLLAALSTFGGTVTLLELLRTVLSENGQVILTELLENTRGHGATGTLSLVLVVWSGSKVFRSLSVAFTEVYGEVTDISLPAQLVRSAVVMGVLLGAVVFLSATSVALTYVKFQVPYPTLVGNVAAFAALGVAFVPIYYVLPPVKTSLTHVAPGALFAAAGWITIQVGFFYYAGTAGRYAAYGYLGALLLFVTALYLAAIVLLLGVVVNATLDW | failed |
| MSGMSAAARWTLIASVIAGVSYVASWGLTLPPGVETAWKGAGVGLLAIHAALRARSLDGWLLAAVMALGTGGDVLLETHGLTVGAISFLLGHVVASGLYLRHRNAVSLAPLALIPVVVAVSFLLPTDRAGAPGIALYSLFLAVMAAMALMSRFPFKTVGLGALMFVVSDLLIFGRLGPLPDNLATGLGVWGLYYFGQLLICLGVAGALAHPSTDLPGEGRGPDSA | failed |
| MSGPERLLTRAPTHRPERPRLTLVSRRVMRTIGWLLLLIGGLAGGLSSAAGQPSAPPDTIRGDAVAPSPAPASGDLAGQGGALEATPLFYVAEDAATLHNRSGLNAPVTRLAMRTPVRRLSCEADWCRVRTDGGTTGYVAADALSNVWIRVSKRKRRVYVYRGAELAHAFEADMAYNAFADKKRNGGKTRPDHWRTPEGTFYVVHKNPQSEFYKALVLNYPKVEDARRGLDAGLISRAQYEAIRQAQQEHRMPPMGTDLGGWIEIHGDGTGDATAWTQGCVAIRNGAMDVIWEQVRVGTPVLIE | failed |
| MSGPRAGFYRQELNKTVWEVPQRLQGLRPVGSGAYGSVCSAYDARLRQKVAVKKLSRPFQSLIHARRTYRELRLLKHLKHENVIGLLDVFTPATSIEDFSEVYLVTTLMGADLNNIVKCQAGAHQGARLALDEHVQFLVYQLLRGLKYIHSAGIIHRDLKPSNVAVNEDCELRILDFGLARQADEEMTGYVATRWYRAPEIMLNWMHYNQTVDIWSVGCIMAELLQGKALFPGSDYIDQLKRIMEVVGTPSPEVLAKISSEHARTYIQSLPPMPQKDLSSIFRGANPLAIDLLGRMLVLDSDQRVSAAEALAHAYFSQYHDPEDEPEAEPYDESVEAKERTLEEWKELTYQEVLSFKPPEPPKPPGSLEIEQ | failed |
| MSGQTFEKIGGMFLDKQRKEGKSKATLDKTAYHLKLANHDFGKKPITAITAPMILRTLRKVEAKGNYETAHRLRARIGSVFRYAVASGLAETDPTYALRDALIRPTRQHLEHHHHHH | failed |
| MSGRHLMYLDYLVPSWHEIESRVIAMVGYQSGGQFRTSLNEEVASLGLNLRRIEAVRTAFYHAEWQAAHMLRQRFADLDINSIIDELLRVVQQMAMIVVGSTITGGLLGATVGAFAGGAGTIPLAGAGAVMGLKVSGWILGALGLASIAEFFVEGLPRIGG | failed |
| MSGSNSSNHLHEREGTSEESREQSHKHSGLFNPRLFLHSLSHKFSHTPFHKHSHVHPHEHSHGHSHTHGRVDPSIIATQKGLWAVKWSFIGLMVTAVLQIFIVIMSGSVALLADTIHNFGDASTAIPLAIAFTLARRKPSKRFSYGYGRVEDLAGVIIVFLILFSAAVAGYESVTRFLNPRPVEHLQAVALAAIIGCIGNEVVAQFRMKVGKEIGSAALIADGYHARMDGFTSLAVLVGAVGVWLGYPILDPLIGMLITIAILKIVLDSSKLVFTRLLDGVEPEVLDQVKAIAEGVEGVCEVTDLRVRWIGHRLHAEINASVDPSLSVEEGHEIANAVREKLLENFSYLSGTTIHVDPVTASGECCHCGSESPDKRLGRQKRVLNVYPG | failed |
| MSHALRAVFLDHASLDLGDLDMRPLRAAFDELQLHAASQPQEVAARLHDARVAISNKVPIDAQCIAACPELELILISATGTNNIDLAAARERGIVVANCHGYGTPSVAQHTLALLLALATRLPDYQQAVRSGRWQQSSQFCLLDFPIVELEGKTLGLLGHGELGGAVARLAEAFGMRVLLGQLPGRPARADRLPLGELLPRVDALTLHCPLTEDTRGMLGSAELALMKPGAFLVNTARGGLVDEQALADALRGGHLGGAATDVLSVEPPRNGNPLLAPDIPRLIVTPHNAWGSREARQRIVGQLAENAEAWKAGR | failed |
| MSHGIKLLVSGDHACFTRPEMKAERVSYDVMTPSAARGILEAIHWKPAITWVIDAIHVLKPIRFQTLRRNEVGGKVPAGKVKSAMTKGTLDGLALLADEDRQQRATTLLVDVAYVIEAHFTLTDKAGPEDNPGKHLDIFTRRARKGQCFHQPCLGTREFPARFELIDGDRPIPAAVNRSEDLGFMLWDIDHAGDRSSMFFRARMDRGVVRVPAPSSAEIRR | failed |
| MSHNEESPGIGPGAGGQDSTTALIEAINIRSMSLIVLTSIASLYFIEWAQPVLLPLVVAVLISYALDPLVATLDRIHIPRPLGAALVLCTLIAILAAASVPLKQEAMAMLDKIPQAIKELQREDASTSEDEESIMEKAQIAAKQIEETAENREGKPAVQAGVTPVRVVDEPMDVRDYVIRNSPATIVLISQMFSVLLLVFFLLSVGKLYRRKIVRISGPSFRRMRKAARIMNELHHQVRRFLFVMVISALFVGILTWLAFLLLGVEQAALWGVVAGIASGVPYLGPFLVLVGSGVAAFLQFGELNTAVIVALTSLVITSIQGNLLMPWLTSYVSSLNAVAIFIGLLFWGWLWGPVGLIVATPILMIAKSVCDHVVNFRPVGELLGK | failed |
| MSHPHPELGRPPALPKGGLRVTPLGGLGEIGRNMTVFEYGGRLLIVDCGVLFPEEEQPGIDLILPDFTSIRDRLDDIEGIVLTHGHEDHIGGVPFLLREKPDIPLIGSKLTLALIEAKLQEHRIRPYTLEVAEGHRERVGPFDCEFVAVNHSIPDALAVAIRTPAGMVVHTGDFKMDQLPLDGRLTDLHAFARLSEEGIDLLLADSTNAEVPGFVPPERDISNVLRQVFANARKRIIVASFASHVHRIQQILDAAHEYGRRVAFVGRSMVRNMGIARDLGYLKVPPGLVVDVKTLDDLPDSEVVLVCTGSQGEPMAALSRMANRDHQIRIVNGDTVILASSLIPGNENAVYRVINGLTRWGANVVHKGNAKVHVSGHASAGELLYFYNICRPKNLMPVHGEWRHLRANAELGALTGVPHDRIVIAEDGVVVDLVEGKAKITGKVQAGYVYVDGLSVGDVGEPALKDRKILGDEGIISVFVVMDSSTGKITGGPHVQARGSGIEDSAFAAVLPKVTEALERSAQDGVVEPHQMQQLIRRTLGKWVSDTYRRRPMILPVVVEV | failed |
| MSHSVEAEDNKLVKTFKDIIPLTFGEEIGNSVSHGVAAFIALCALPYAAIHSFLEYGVLGAFSVSVYVISIFLMFISSTVYHAMPNQSSHKFILRIIDHSMIYVAIAGTYTPICLTLVGGWIGWSSMVVLWGITIWGILYKSLAKNVNHKLSLIMYLVMGWIGVLFLPTIIFDSSLLFMLFILFGGLAYTIGAWFYAQKNRPYFHMIWHFFIIVASVFHFVAIMYFM | failed |
| MSHTAEIPMVPGSESPLELKPLKAVDPKAVYHRRAQRLLSLAKDSPLADYFELCRRVVAIQARLAAEADFGQLLAWGKDEAIPLSHLGSEADSYWQGLLQQLLSDLLPQVGEDLARVLRLLMQQSPEQLTSWGASLRQGHMSAVPARFSLFIWAAMGVYWSHWAPMVIKRIDQRKVAQQNLCPICGSHPVASVIVDQPRAGLRYLHCSLCESEWHYIRAHCTSCGQDKGTTLWSFDDTQAQVRIESCDECHGYTKMMFVEKSPLMDVVADDLATLMLDSELNAKGFGATTVNPLLLAHETEQ | failed |
| MSHVSLQEFLKTEPDGTLEVVAEQYNTTLLEVVRNLPSSTVVPGDKFDTVWDTVCEWGNVTTLVHTADVILEFSGELPSGFHRHGYFNLRGKHGMSGHIKAENCTHIALIERKFMGMDTASILFFNKEGSAMLKIFLGRDDHRQLLSEQVSAFHTLAASLKEHA | not failed |
| MSIADAEFAQAKTAQSAPTAAKPQLPPGVVTEGPLVKAKLRESYLLLGILYVGAVAGIIWAVTQGVGKVELFTFAWMFALTTFGIGAGMHRLFVHRSFRTGPIMRVFFCAIAQMAVQGSIAKWVANHRRHHLYADDVGDPHSPQFDGFGNRYVSALKGFLHAQGSWVFDQATTDNEYYAKDILADPIAMFFVRTRWVWYGMSAVFIPGFIGYVFGGVHTMIGCVLFSGLLRAYLLILVSQLTGSVCHAYGYRRFEVDDASTNEFVTTILTFGEGLHNNHHRFPRDAYISHAWWEIDLNGLIILGMEKIGLVHDVFHASHRQLERASEAQAASTR | failed |
| MSIASLIGTVGGVGYLRPAPGTWGSLAALPLAWVLHQLGGFPLLALATLGAFVAGLWATRVMTAGQTDHDPSEIVIDEVAGQFLALWALSLPAWSHGIEISALWPGWIAAFVLFRLFDITKPGPVGWADRRGDPMGVMLDDIIAGLFAAIGTALLAALSHGVLGL | failed |
| MSIATTPLHTALSLPQIQSFAASDMAAIDTLIHDRLTSDIVLINQIADHIICSGGKRLRPMLTMLAGHAIGPTGPHHHQLAAIIEFIHTATLLHDDVVDGSELRRSRSTANALWGNAPSVLVGDFLYSRSFQLMTELANLEVMQILAETTNRISEGEVLQLLHVHNPDTDETTYLSVIERKTAILFAAAAQLGALASHADTQTQTRMYEYGMQLGYAFQITDDVLDYTANNSQLGKNLGDDLAEGKATLPVIHAMTHSDAATCERLRMIISKGDSDAMPEVLNAIRTTGSLDYSRQRASAYAATAERALDGLPETEAVAALRGLARYAVQRTY | failed |
| MSIDVHPNNYAYQTNEPYKNFEAEDKLIGHLQDFVDGHQEDVKRIGSKMSEMKAKFEEKFDDLTNRLENMEGALVEINNALLNHQDDIQDQYTRIVNVGLVVDTVESHLDWKIEELEKKLNNSNEFSE | not failed |
| MSIELDATTYIHAKPTTAHSYILPKIFDVLGDHFDGSAENDVFDLGCGTGGAAAALTKAGYDVVGVDPSSDGIGKANIRHPGLALSVGSAYDDLSREYGSFSAVISLEVVEHVYDPKTFTSTMFDLVKPGGIAVISTPYHGYLKNLALAATGKMDDHFMPLKDHGHIKFWSKNTLRTLLLETGFANVRFEYVGRIPAFAKSMIAVADKPFSQSARHGAVRRSSPEVVSTACRQKKP | failed |
| MSIESDMIHVEVVYALPHEQRVFNLVVNNHATVEEIIRQSGVLELYPEIDLAKNKVGVFSRNVKLDATVRDKDRIEIYRPLLADPKEIRRKRAEQAKAAGNADPVTGGKPNALRK | failed |
| MSIHVNEANLTFHLQTDHTSYIFQIMKNGEAGQIYYGPRIHVQPTYQNLMSQEWRDATPSLNEENPNFQPATIKAEYASLGKGDFRQPAFQVTQANGSRITELTYDHYQLLTGKQRLANLPSTFDDTDDDAQTLVVSFNDRITGLALDLNYSIFPHQDVIVKSAKFTNPSSEKLVLNRALSSQLDLPDANYDLIQFSGTWARERHLYRHPLRPGMQSISSLRMASSHQQNPFMMLARPQTTDEQGAVFGFNLVYSGNFLDAIEVDQYSTSRILTGINPDEFGWNLAPQATFQTPEAILSYTSAGMNQLSQQMASFYQQHLVNPRFAHEERPVLINNWEATYFDFNEAKLMTIVNQAKRLGIEMFVLDDGWFGHRDDDTTSLGDWFVDQRKFPDGIEHFSQAVHQQGMKFGLWFEPEMVSVDSDLYQQHPDWLIHAPKSTPTPGRHQFVLDMARPEVVDYLFKLMSQMIESANLDYIKWDMNRYATEMFSSRLTSDQQLELPHRYILGVYQLYARLTQAYPNVLFESCASGGGRFDLGMMYYAPQAWTSDDTDAAERLLIQFGTSYGYPQAMMGAHVSAVPNDQMGRITSLKTRGAVAFFGDLGYELDITKMAPTELDQVKKQVAFYKCYRQLFQFGKFYRIDSPFVEDGNVTSWQVVSDDQKQAIAARYQLLNHPNAPYTRFYFKGLRPNQRYQINDDPSTYYGDELMNAGYFVPTILADGQESKDFYTQLFVVTAILEHHHHHH | not failed |
